One assay addresses HLA-A*01:01. Description: IEDB peptide-MHC binding, purified MHC/direct/fluorescence; filed as Kd, often an IC50 or EC50 that approximates it; ≥ and ≤ were set here for values at or beyond the usual limits of such assays.
Assay [1] deals with HLA-A*02:01. Described as above.
The next assay addresses HLA-A*26:01. The description is as above.
The target of assay [2] is HLA-A*68:02. The description is as above.
For the next assay, the target named is HLA-A*69:01. The description is as above.
The target of a further assay is HLA-B*08:01. The description is as above.
For another assay, the target named is HLA-B*08:02. The description is as above.
For the next assay, the target named is HLA-B*08:03. The description is as above.
The target of assay [3] is HLA-B*15:01. The description is as above.
Assay [4] concerns the target HLA-B*15:17. The description is as above.
For assay [5], the target named is HLA-B*18:01. Described as above.
For assay [6], the target named is HLA-B*27:05. The description is as above.
Assay [7] addresses HLA-B*39:01. The description is as above. Particulars: source organism: Cowpox virus.
The target of the next assay is HLA-B*40:01. Described as above.
For the next assay, the target named is HLA-B*46:01. Described as above.
The next assay addresses HLA-B*48:01. The description is as above.
The target in another assay is HLA-B*57:01. Described as above.
A further assay addresses HLA-B*58:01. The description is as above.
Assay [8] deals with HLA-A*26:02. Description: IEDB peptide-MHC binding, purified MHC/competitive/fluorescence; filed as Kd, often an IC50 or EC50 that approximates it; ≥ and ≤ were set here for values at or beyond the usual limits of such assays.
For assay [9], the target named is HLA-A*26:03. Described as above.
The target of assay [10] is HLA-B*07:02. The assay is described as above. To be noted: source organism: Vaccinia virus WR.
In a further assay the target is HLA-B*35:01. Described as above. To be noted: source organism: Vaccinia virus WR.
A further assay addresses HLA-A*11:01. Description: IEDB peptide-MHC binding, purified MHC/direct/fluorescence; filed as Kd, often an IC50 or EC50 that approximates it; ≥ and ≤ were set here for values at or beyond the usual limits of such assays.
In another assay the target is HLA-A*24:03. Described as above. Particulars: source organism: Cowpox virus.
For another assay, the target named is HLA-A*31:01. The description is as above.
Assay [11] addresses HLA-B*07:02. The assay is described as above.
For the next assay, the target named is HLA-A*02:06. Description: IEDB peptide-MHC binding, purified MHC/competitive/fluorescence; filed as Kd, often an IC50 or EC50 that approximates it; ≥ and ≤ were set here for values at or beyond the usual limits of such assays.
Assay [12] addresses HLA-B*15:01. The assay is described as above. To be noted: source organism: Variola virus.
Assay [13] addresses HLA-B*15:17. The assay is described as above.
In assay [14] the target is HLA-B*18:01. Described as above. To be noted: source organism: Variola virus.
The next assay concerns the target HLA-A*03:01. Description: IEDB peptide-MHC binding, purified MHC/direct/fluorescence; filed as Kd, often an IC50 or EC50 that approximates it; ≥ and ≤ were set here for values at or beyond the usual limits of such assays. Particulars: source organism: Burkholderia mallei.
Assay [15] deals with HLA-A*26:02. The description is as above.
For assay [16], the target named is HLA-A*26:03. The assay is described as above.
The target of assay [17] is HLA-A*02:01. Description: IEDB peptide-MHC binding, purified MHC/competitive/fluorescence; filed as Kd, often an IC50 or EC50 that approximates it; ≥ and ≤ were set here for values at or beyond the usual limits of such assays. To be noted: source organism: Burkholderia mallei NCTC 10229.
The target of assay [18] is HLA-A*68:02. Described as above. To be noted: source organism: Burkholderia mallei NCTC 10229.
Assay [19] deals with HLA-B*27:05. The assay is described as above. To be noted: source organism: Burkholderia mallei NCTC 10229.
A further assay deals with HLA-B*44:02. Description: IEDB peptide-MHC binding, purified MHC/direct/fluorescence; filed as Kd, often an IC50 or EC50 that approximates it; ≥ and ≤ were set here for values at or beyond the usual limits of such assays. Particulars: source organism: Orthomarburgvirus marburgense.
The target of assay [20] is HLA-B*39:01. Description: IEDB peptide-MHC binding, purified MHC/competitive/fluorescence; filed as Kd, often an IC50 or EC50 that approximates it; ≥ and ≤ were set here for values at or beyond the usual limits of such assays. To be noted: source organism: Orthomarburgvirus marburgense.
Setting [21] is: source organism: Vaccinia virus WR.
[22] abbreviates: source organism: Burkholderia mallei.
Setting [23] is: source organism: Burkholderia mallei ATCC 23344.
The mark [24] stands for this setting: source organism: Orthomarburgvirus marburgense.
[25] abbreviates: source organism: Ravn virus - Ravn, Kenya, 1987.

From the Immune Epitope Database (IEDB) come the findings set out here.

Bounds are passed on as bounds.

Turning to YHRPLTGYM, the Kd with HLA-A*01:01 (source organism: Cowpox virus), with HLA-A*02:01 [1] (source organism: Cowpox virus), with HLA-A*26:01 (source organism: Variola virus), in the assay with HLA-A*68:02 [2] (source organism: Cowpox virus), in the assay with HLA-A*69:01 (source organism: Cowpox virus) and with HLA-B*08:01 (source organism: Variola virus) was not below 20 µM each time. The Kd with HLA-B*08:02 (source organism: Variola virus), with HLA-B*08:03 (source organism: Variola virus), in the assay with HLA-B*15:01 [3] (source organism: Cowpox virus), with HLA-B*15:17 [4] (source organism: Cowpox virus), with HLA-B*18:01 [5] (source organism: Cowpox virus) and with HLA-B*27:05 [6] (source organism: Cowpox virus) was not below 20 µM each time. The Kd with HLA-B*39:01 [7], with HLA-B*40:01 (source organism: Cowpox virus), in the assay with HLA-B*46:01 (source organism: Cowpox virus), with HLA-B*48:01 (source organism: Cowpox virus), with HLA-B*57:01 (source organism: Cowpox virus) and with HLA-B*58:01 (source organism: Cowpox virus) was not below 20 µM each time. For the same sequence, the Kd was not below 20 µM with HLA-A*26:02 [8] (setting [21]), not below 20 µM with HLA-A*26:03 [9] (setting [21]), 0.302 µM with HLA-B*07:02 [10] and not below 20 µM in the assay with HLA-B*35:01.
Take VYSFDESSF: the Kd is not below 20 µM with HLA-A*01:01 (source organism: Cowpox virus); not below 20 µM with HLA-A*02:01 [1] (source organism: Cowpox virus); not below 20 µM with HLA-A*11:01 (source organism: Cowpox virus); 0.275 µM in the assay with HLA-A*24:03; not below 20 µM with HLA-A*31:01 (source organism: Cowpox virus); not below 20 µM in the assay with HLA-A*68:02 [2] (source organism: Cowpox virus). The Kd is not below 20 µM with HLA-A*69:01 (source organism: Cowpox virus); not below 20 µM with HLA-B*07:02 [11] (source organism: Cowpox virus); not below 20 µM in the assay with HLA-B*57:01 (source organism: Cowpox virus); not below 20 µM with HLA-B*58:01 (source organism: Cowpox virus); not below 20 µM in the assay with HLA-A*02:06 (source organism: Variola virus); 0.192 µM with HLA-A*26:02 [8] (source organism: Variola virus). For the same sequence, the Kd with HLA-A*26:03 [9] (source organism: Variola virus) was 1.42 µM; in the assay with HLA-B*15:01 [12], 2.28 µM; in the assay with HLA-B*15:17 [13] (source organism: Variola virus), 2.1 µM; with HLA-B*18:01 [14] it was 0.379 µM.
RRSLLAHVR: the Kd with HLA-A*01:01 (setting [22]) was not below 20 µM; with HLA-A*03:01 it was 1.18 µM; in the assay with HLA-A*11:01 (setting [22]) it was 1.13 µM; with HLA-A*26:01 (setting [23]), not below 20 µM; with HLA-A*26:02 [15] (setting [23]), not below 20 µM; in the assay with HLA-A*26:03 [16] (setting [23]), not below 20 µM. Moreover, the Kd in the assay with HLA-A*31:01 (setting [22]) was 5.4 µM; with HLA-B*07:02 [11] (setting [22]), not below 20 µM; in the assay with HLA-B*08:01 (setting [23]), not below 20 µM; with HLA-B*08:02 (setting [23]), not below 20 µM; with HLA-B*15:01 [3] (setting [22]), not below 20 µM; with HLA-B*18:01 [5] (setting [22]) it was not below 20 µM. Also, the equilibrium dissociation constant (Kd) in the assay with HLA-B*40:01 (setting [22]) was not below 20 µM; with HLA-B*46:01 (setting [22]), not below 20 µM; with HLA-B*48:01 (setting [22]), not below 20 µM; in the assay with HLA-B*57:01 (setting [22]), not below 20 µM; in the assay with HLA-B*58:01 (setting [22]) it was not below 20 µM; with HLA-A*02:01 [17], 0.034 µM. Moreover, the dissociation constant (Kd) with HLA-A*68:02 [18] is 2.92 µM; with HLA-B*15:17 [13] (source organism: Burkholderia mallei NCTC 10229), not below 20 µM; in the assay with HLA-B*27:05 [19], 0.0066 µM.
As to LEHGLYPQL, the equilibrium dissociation constant (Kd) with HLA-A*01:01 (setting [24]), with HLA-A*02:01 [1] (setting [24]), with HLA-A*11:01 (setting [24]), with HLA-A*26:02 [15] (setting [25]), with HLA-A*26:03 [16] (setting [25]) and with HLA-A*31:01 (setting [24]) was not below 20 µM in each case. Besides, the Kd with HLA-A*68:02 [2] (setting [24]), with HLA-A*69:01 (setting [24]), in the assay with HLA-B*07:02 [11] (setting [24]), with HLA-B*08:02 (setting [25]), in the assay with HLA-B*08:03 (setting [25]) and with HLA-B*15:17 [4] (setting [24]) was not below 20 µM throughout. The Kd is 0.034 µM with HLA-B*18:01 [5] (setting [24]); not below 20 µM with HLA-B*27:05 [6] (setting [24]); 0.017 µM with HLA-B*40:01 (setting [24]); not below 5 µM in the assay with HLA-B*44:02; 0.634 µM with HLA-B*48:01 (setting [24]); not below 20 µM in the assay with HLA-B*57:01 (setting [24]). The Kd with HLA-B*58:01 (setting [24]) was not below 20 µM; with HLA-A*02:06 (setting [24]) it was not below 20 µM; with HLA-B*39:01 [20] it was 0.931 µM.
